Here are results for 19 sequences from the DeepSol protein solubility set.

This series in a line: soluble on expression in E. coli; label from the status in PepcDB or PDB records.
On to “MSLGGTMVFRPVDVPGGAVFADQKITLGGGSPDRAFIENAHPDYLSGSFAEKNAWRYYIAKYELTAAQYAAIAGPCPDASKMDLWLPKVGITPGEATVAAESYSAWLFANARKSLPGDGKAPGFVRLPTEAEWEYAARGGAKVGPSDFDARHPPMDGPESGAIWYDGPESADKELQLVGLLAANPLGLHDMLGNAAELVQDLFRLNRVGRPHGRAGAFVKRGGDYRTPLAEIHSGLRQEFDLFDAKGLRREATTGTRFVLAAAALPSRDRLEALRQGWTALTEQSHSPLAEQQSDPRAELKTLSEFTSQLDFPEKAEVKRRLLNLAGVIDANIASRNEERDRAAREMLRVAVFAAGQLPTALDNAERCGKLMALNAAQYKERCDRVQADSKFDSQYYLDHVTRMLAEFPVPILEGQLGTLGSDLHAQGMLDAEGRVDHVFSDLKTLQAKGATAHKGILGGWKGREGHHHHHH”, for which the “soluble on expression in E. coli” value is “not soluble”.
Take “GPGSMHRIVKVNVGGRYFQTRLSTLLRFPDTSFARMFEGLASTSALPPTLSPPPQPTESEDVFVDANPDVFEKVLGFLRTNRIQLPLNDECLRAELVHHLNSWDLMPHAFPASAADGAVEGEEAHRIELPDVCVVQLCDHMQHDQGVKRHAMTITYGADGFQLRKLTQMIRRDLNQQLSSTYWQCYQTNERAAFFATTKVANGAADILTTSITQQVVQHTERLGYHLATSYVTL”: the “soluble on expression in E. coli” value is on record as “not soluble”.
The result for “MASTIKEALSVVSEDQSLFECAYGTPHLAKTEMTASSSSDYGQTSKMSPRVPQQDWLSQPPARVTIKMECNPSQVNGSRNSPDECSVAKGGKMVGSPDTVGMNYGSYMEEKHMPPPNMTTNERRVIVPADPTLWSTDHVRQWLEWAVKEYGLPDVNILLFQNIDGKELCKMTKDDFQRLTPSYNADILLSHLHYLRETPLPHLTSDDVDKALQNSPRLMHARNTGGAAFIFPNTSVYPEATQRITTRPDLPYEPPRRSAWTGHGHPTPQSKAAQPSPSTVPKTEDQRPQLDPYQILGPTSSRLANPGSGQIQLWQFLLELLSDSSNSSCITWEGTNGEFKMTDPDEVARRWGERKSKPNMNYDKLSRALRYYYDKNIMTKVHGKRYAYKFDFHGIAQALQPHPPESSLYKYPSDLPYMGSYHAHPQKMNFVAPHPPALPVTSSSFFAAPNPYWNSPTGGIYPNTRLPTSHMPSHLGTYY” reads “soluble”; that for “MVTPVSICNYISLPDDFPARNIAPQVKEVLKDFIDALSTIICDEEWRTSLNTNSATKKIFNNLDNLSYIQRTSFRGNDTLYNEKVQFKLTYPVKNGRHKENIEFQVVINLSPIYLDNFRHDGEINIFCAPNPKPVTMGRVFQTGVERVLFLFMNDFIEQFPMINLGAPIKRAHTPHIEPLPPDHHTAADYLRQFDLLVLNFISRGNFVILPRLWNNSEVHRWFVNKDPNLITAILDITDSELKEDLLQSLMDSLGSNKHVQPEVCICFLSLLAEQESPHFQDLFLFFANMLLHYHQFMNPNESDLNDVLMPASLSDDKIIKHMARRTLKLFVKNETPPKVTHEDLVKNRPRSPVRPPIPATAKTPDLPERH”, “not soluble”.
As for “MSLAESPLEIHVIADSTGETAVRLARAARSQFEGVHWHIVRHPMIGTVPEMVSALEAVSEAHEAGQWVCVVHTLVLPDMRRMVSDACEEMGIRELDLMGPMLEAMEEASGLDADAVPRRPVGVEADYFTRISAMEFAVRNDDGAIPDRLTEADICLVGVSRSGKTPLSIYLGYLGYKTVNVPLVPGIAPPTELAAVDRWRIVGLTIDAQRLLEIRGRRVRGLGGFGNEDGYADLAAIYEELDEVGKIQRRLGCPIIDTTGLALEESATKVIDVVDQRAKTAGTRLRKPAGSYRMRPEGHHHHHH”, the entry is “soluble”; as for “MAQLAKTAVAALSKKLVAPAAVARRTLATEASPEDYGYYPDPLEHATGREKKMLLARLAGDDRYEPKVYYRAEASTKQKPNLVPSHYDFRIIGCMCEQDSGHVNFMTIRKGDPKRCECGHWFKGVDADPESI”, “not soluble”; as for “MGQQLLSHQSVSSQWLANQSATSTLPLLDLSLLSGSDTERQAFLTALRHAARDVGFFYLTGHGIDTSLLRQIQILSRQFFALSDEEKLSIAMIRSPHFRGYNRAASEFTRGQPDWREQFDIGAERTPLPQIAGAPSWTRLQGPNQWPTALPELKPVLLQWQEEMTRMSLRLLRAFALALDLDEQAFDALYGDKPNEHIKLIRYPGREATQSGQGVGAHKDSGFLSFLLQDTQRGLQVEVEEGQWIDAVPREGTFVVNIGELLELASNGYLRATVHRVETPPAGIDRLSIAFFLGARLDAVVPLYPLSAALAAEARGPASDPHNPLFRDVGLNYLKGRLRSHPDVAERYYSDALCS”, “not soluble”.
As for “MKEKISEKEYKALIRKIGKEHFDGEKEEYGDGTVGVWTYELRKYKLKPPVKVKYVTQEQFQEYKDSNNQRLIKIETTLAAQGEQIRIQVEQIKELQIEQKAQGETLKLILQTLQKMSDRLDKMEVKMDKMEEKMDKMEGKIDKIENRMDKMEVKMDKMEKRIDKLESKLEHHHHHH”, the entry is “not soluble”; as for “MVTIANDFLTVKISRHGAELTSIKDNLTGRERLWQADPAVWGRHAPVLFPIVGALADNQYHYAGKTYHMGQHGFARDRDFTVLSATPFKASFVLKDDDKTRAMYPFAFRLIITFALENNNLHVTYHVDNPDKSEPLFFSIGGHPGFKVPMTPDTQFSDYYLNFKPRKSLVQIPLVAGEGIDYTHRTLAATDANLALTHETFDHDALIFALLGKTTFNLVSDKTKHGVSVTMTDTPYLGVWSPYPTTGDFVCIEPWWGIADTIGSTGDLTRKLGINRLEPGTAFEKGYMISIFLEHHHHHH”, “not soluble”.
Turning to “SRTPAKGNGADPIRLPVRSGIRESRLEFHYHYSNFLVYGEAGSGKTKSIGKWLLSEYMRLGFAGFIYDFKDTDYTRTAYNLIKRHRYPHKFYYVSFDRPERSYRFNPLKVVRDRTELIQLMEDVLLALLPKKEQQNEWVAGGLGILRGVAFRFWDEFPEHCTLPHILAFIMTASARQLSLFLQQNLVSEMLAGAYLKAEGSEKTQASYLSTLCNNLATISQNEEIAYVLSGDDFDFNLIDPETPKLFAVSNNFSKNSVYAPVISMLMTISARQFSMQNRVPFVYFLDEMTTVNIKNFETLPSVLREYKAAFILLTQSGAKLENLYGKLDRSSVEANFGNMFLGRTKDVEALKYYPLFFGKEEKERRSRSSGKSGASSSSSVTVSSQKEDIYQGKDFADLEPGEFIGSATRANVSYFKVKLEMYDDRNEEPLPDVRVLEPGELGRNFARILEEVRELFPCE”, the “soluble on expression in E. coli” value is on record as “not soluble”.
As to “QLVLVKRSTPPVAVIWSAPDCPYCRKLEKTLEQENASVYVVPVGVAENGFRQAARVYCADDPSQAWRKVMQGSEINGRAKTSCQYPRDMLNDIGFFLGMGRMATPIVVFADGSTVIGWNDQNAWMLLRKKISEQIFFND”, the “soluble on expression in E. coli” value is listed as “not soluble”.
Consider “MSLNATARQEPADLNDPALRARAVTAARGDAPFDMLITGGRLLDTVTGLIRQADIGLVGALISSVHAPASRTDAVEIIDAAGSILTPGLIDTHMHIESSMVTPAEYASAVLPRGVTTIVWDPHEFGNVHGLDGVRWAIEAARSLPLRMILLAPSCVPSAPGLELAGADFDASMITEMLHSSAVGGVAEVMNMRGVIDGDPRMTDIVNAGLAAGKLVCGHARGLEGADLNAFMASGITSDHELTSGADLLAKLSAGLTIELRGSHDHLLQEFVEVLSGLGHLPPTVTLCTDDVFPDELQEGGGLDDVVRRLVRYGMKPEWAIRAATFNAAQRLKRSDLGLVATGRRADIVLFEDLTEFRARLVISGGRIVARNGSMQVAVQQIDTAPLVNSVKLPPLTENDFRIPAKGERVRVATIDRPRFTQWGEAETEVRDGFIVPPAGSAMISVAHRHGKTDGIPRIGFLTGWGEWRGAFCTTVSHDSHNLTVFGGNAGDMALAANAVISAGGGMAVAKDGRIEAMLPLPLSGLVTDASLKDTALAFAGIRKAMEKIVTWKPPYLVFKACFGATLACNVGPHQTDQGIADVVTGKVLENPVLAVWEGHHHHHH”, for which the “soluble on expression in E. coli” value is “soluble”.
As for “MTQQIKYKRVLLKLSGESLMGSDPFGINHDTIVQTVGEIAEVVKMGVQVGIVVGGGNIFRGVSAQAGSMDRATADYMGMMATVMNALALKDAFETLGIKARVQSALSMQQIAETYARPKAIQYLEEGKVVIFAAGTGNPFFTTDTAAALRGAEMNCDVMLKATNVDGVYTADPKKDPSATRYETITFDEALLKNLKVMDATAFALCRERKLNIVVFGIAKEGSLKRVITGEDEGTLVHC”, the entry is “soluble”; as for “MNNSGADEIGKLFVGGLDWSTTQETLRSYFSQYGEVVDCVIMKDKTTNQSRGFGFVKFKDPNCVGTVLASRPHTLDGRNIDPKPCTPRGMQPERTRPKEGWQKGPRSDNSKSNKIFVGGIPHNCGETELREYFKKFGVVTEVVMIYDAEKQRPRGFGFITFEDEQSVDQAVNMHFHDIMGKKVEVKRAEPRDSKSQAPGQPGASQWGSRVVPNAANGWAGQPPPTWQQGYGPQGMWVPAGQAIGGYGPPPAGRGAPPPPPPFTSYIVSTPPGGFPPPQGFPQGYGAPPQFSFGYGPPPPPPDQFAPPGVPPPPATPGAAPLAFPPPPSQAAPDMSKPPTAQPDFPYGQYAGYGQDLSGFGQGFSDPSQQPPSYGGPSVPGSGGPPAGGSGFGRGQNHNVQGFHPYRR”, “soluble”; as for “MGHHHHHHSHMAGEKAQKKGKEKWKEKTWYTVESPPYLGSKEVTVALGEDPESMVNRIVEVPISDLTGNFKKSNEKALFRITGCEGTKCKTIFIGHYIGDDYIRRLVRRRKERIDIIEDVKTSDGSIITVKIVVVSDGKLTNTKKSEIRKALTSFIVSKGSQLSYADFVRYLIGDDSYNDMVEATKNIYPLRKIEIRKSELVSLSGMQEPQKNEPAPGGEAIAQN”, “not soluble”.
The result for “MATFSISAMAAQCGVTTANIRSWERYGLLQPTKDEAGNRFYCIEDAIRIQHIIDALSKGFSLKEIKPALYGEETHCRSGWLFYQEEILAQCRKFEPAKLRKLLWRYGREIPPCIVIESILRPLRLWLSAGDDDARRFEKALLDTAIIEYATFQLSSVRKAPAGTMLIAAFSLNDPIELWLETIKYCSEGMRVEVIPWQAPMPDLLSTSFEHIVLWHDETLTPAQENLIQALKESGKFSLHVKNGSGLTLLPAVYRQHEMPESMQHVAPQIHANGYEKSGTAR” reads “not soluble”; that for “SAQNVYGPGVRIGNWNEDVYLEEELMKDFLEKRDKGKLLIQRSRRLKQNLLRPMQLSVTEDGYIHYGDKVMLVNPDDPDTEADVFLRGDLSLCMTPDEIQSHLKDELEVPCGLSAVQAKTPIGRNTFIILSVHRDATGQVLRYGQDFCLGITGGFDNKMLYLSSDHRTLLKSSKRSWLQEVYLTDEVSHVNCWQAAFPDPQLRLEYEGFPVPANAKILINHCHTNRGLAAHRHLFLSTYFGKEAEVVAHTYLDSHRVEKPRNHWMLVTGNPRDASSSMLDLPKPPTEDTRAMEQAMGLDTQ”, “soluble”.
As for “GPGSDQLKQSAFLVRNDEKVAALIVLLKRVLHVGEAAANSAQALIFSESKFHVEFLQMILTHYSISTSAVHGQMDQEARRLAVRSFAKRETSVMVVTDVAARGLDLPLLDNVVNFSFPFNPKLFVHRVGRVARAGRSGTAYSIMTFEDFPYYVDLMQFIGRPLQSAPVPGDLLFTPDDGCYGRLPEEDIQLELDFLKRLH”, the entry is “not soluble”.
On to “MWHGMGDCCCNPLSMGSVKKLFEEQIPGVYVHSLQLGSSITKDIEHGFYANTNELVYMACIKIKNDPELKNGYNAIGFSQGAQFLRAVAQRCPNPPMKNLVSVGGQHQGVFGAPYCIGDNIMCNGVRRLIDLGAYLPFVQKRVVQAQYWHDPNQVEEYKKRSIFLADINNENNNNPTYKRNLLSLKNLVLVKFNQDHMVVPKDSSWFGFYKDGDIDTILPMNETDLYKEDRIGLKKLHESGRIHFMDVDGDHLQIPRSVLVNDIIKKYFM”, for which the “soluble on expression in E. coli” value is reported as “not soluble”.
